Measured values as given in paper PMC9482650, “Quantitative fragmentomics allow affinity mapping of interactomes” (Nature Communications, 2022).
Blank lines part the entries; values can stand above or below the binder they belong to.

Tests used:
Test in all cases: holdup assay
Design in all cases: key: below the threshold = too weak to quantify, mostly under pKd 3.1 to 4
Details in all cases: plain residues with an end cap or a label only (N-terminal biotin on a linker: ttds)
[1] = target: T1, APBA1_1, Q02410
T1 sequence (Q02410 651-752, limits assumed, looked up): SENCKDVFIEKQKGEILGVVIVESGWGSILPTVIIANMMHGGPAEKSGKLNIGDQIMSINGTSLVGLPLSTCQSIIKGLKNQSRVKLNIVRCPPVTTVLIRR

[2] = target: T2, APBA1_2, Q02410
T2 sequence (Q02410 742-832, limits assumed, looked up): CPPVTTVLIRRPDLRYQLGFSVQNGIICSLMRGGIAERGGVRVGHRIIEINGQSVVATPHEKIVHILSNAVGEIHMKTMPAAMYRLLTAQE

[3] = target: T3, DFNB31_2, Q9P202
T3 sequence (Q9P202 274-371, limits assumed, looked up): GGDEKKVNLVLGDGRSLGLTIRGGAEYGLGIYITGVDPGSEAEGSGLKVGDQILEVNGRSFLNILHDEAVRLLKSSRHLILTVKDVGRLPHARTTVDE

[4] = target: DLG4_3, P78352
[5] = target: T4, FRMPD1, Q5SYB0
T4 sequence (Q5SYB0 52-145, limits assumed, looked up): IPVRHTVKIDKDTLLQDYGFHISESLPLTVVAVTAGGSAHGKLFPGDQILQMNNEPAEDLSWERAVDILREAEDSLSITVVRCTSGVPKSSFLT

[6] = target: GIPC2, Q8TF65
[7] = target: GOPC, Q9HD26
[8] = target: T5, GRIP1_4, Q9Y3R0
T5 sequence (Q9Y3R0 467-571, limits assumed, looked up): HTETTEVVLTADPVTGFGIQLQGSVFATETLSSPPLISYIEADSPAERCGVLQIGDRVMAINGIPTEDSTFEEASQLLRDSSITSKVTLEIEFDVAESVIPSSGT

[9] = target: T6, GRIP1_5, Q9Y3R0
T6 sequence (Q9Y3R0 568-668, limits assumed, looked up): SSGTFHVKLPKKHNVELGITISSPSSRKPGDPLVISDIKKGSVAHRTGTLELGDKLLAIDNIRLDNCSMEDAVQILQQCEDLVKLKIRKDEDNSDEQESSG

[10] = target: HTRA1, Q92743
[11] = target: T7, HTRA3, P83110
T7 sequence (P83110 354-453, limits assumed, looked up): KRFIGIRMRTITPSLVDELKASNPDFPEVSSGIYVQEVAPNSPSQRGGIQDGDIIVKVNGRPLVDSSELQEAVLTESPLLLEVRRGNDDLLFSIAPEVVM

[12] = target: T8, HTRA4, P83105
T8 sequence (P83105 378-476, limits assumed, looked up): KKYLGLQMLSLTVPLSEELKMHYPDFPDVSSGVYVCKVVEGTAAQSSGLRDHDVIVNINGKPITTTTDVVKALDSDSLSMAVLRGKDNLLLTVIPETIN

[13] = target: Inadl_1, Q8NI35
[14] = target: Inadl_2, Q8NI35
[15] = target: Inadl_3, Q8NI35
[16] = target: Inadl_4, Q8NI35
[17] = target: MAGI2_4, Q86UL8
[18] = target: T9, MPDZ_10, O75970
T9 sequence (O75970 1624-1722, limits assumed, looked up): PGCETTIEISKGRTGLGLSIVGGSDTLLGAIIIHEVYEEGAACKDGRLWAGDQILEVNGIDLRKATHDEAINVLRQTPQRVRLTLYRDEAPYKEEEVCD

[19] = target: NHERF4_1, Q86UT5-2
[20] = target: NOS1, P29475
[21] = target: T10, PDZRN3_1, Q9UPQ7
T10 sequence (Q9UPQ7 244-349, limits assumed, looked up): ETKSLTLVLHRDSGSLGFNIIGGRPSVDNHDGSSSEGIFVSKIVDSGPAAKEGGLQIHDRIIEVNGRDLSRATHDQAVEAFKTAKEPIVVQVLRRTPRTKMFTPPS

[22] = target: SCRIB_2, Q14160
[23] = target: SCRIB_3, Q14160
[24] = target: T11, TIAM2, Q8IVF5
T11 sequence (Q8IVF5 885-986, limits assumed, looked up): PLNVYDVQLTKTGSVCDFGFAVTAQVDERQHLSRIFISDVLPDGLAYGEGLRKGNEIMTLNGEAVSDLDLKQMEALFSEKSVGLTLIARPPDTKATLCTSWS

[25] = target: TJP2_1, Q9UDY2
[26] = target: T12, TJP3_3, O95049
T12 sequence (O95049 375-456, limits assumed, looked up): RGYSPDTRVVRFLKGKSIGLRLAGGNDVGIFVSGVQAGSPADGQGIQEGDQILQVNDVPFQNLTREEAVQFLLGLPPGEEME

NHERF4_1, Q86UT5-2, sequence (Q86UT5 other isoform, or with tags, fused parts or gaps): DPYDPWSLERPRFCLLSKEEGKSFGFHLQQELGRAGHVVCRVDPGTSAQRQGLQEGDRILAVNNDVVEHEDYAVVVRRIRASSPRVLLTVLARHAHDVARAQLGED
GIPC2, Q8TF65, sequence (Q8TF65 112-203): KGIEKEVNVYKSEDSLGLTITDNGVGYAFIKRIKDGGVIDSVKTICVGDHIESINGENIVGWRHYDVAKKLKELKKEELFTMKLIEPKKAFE
MAGI2_4, Q86UL8, sequence (Q86UL8 772-865): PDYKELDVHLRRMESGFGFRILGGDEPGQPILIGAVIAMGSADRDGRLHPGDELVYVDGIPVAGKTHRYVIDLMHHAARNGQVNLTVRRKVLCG
Inadl_2, Q8NI35, sequence (Q8NI35 238-335): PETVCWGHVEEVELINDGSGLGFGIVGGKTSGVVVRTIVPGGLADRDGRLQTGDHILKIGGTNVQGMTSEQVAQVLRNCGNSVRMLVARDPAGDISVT
SCRIB_3, Q14160, sequence (Q14160 999-1103): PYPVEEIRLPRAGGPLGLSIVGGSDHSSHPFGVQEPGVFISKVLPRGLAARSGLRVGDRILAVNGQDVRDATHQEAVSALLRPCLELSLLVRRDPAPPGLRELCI
SCRIB_2, Q14160, sequence (Q14160 857-960): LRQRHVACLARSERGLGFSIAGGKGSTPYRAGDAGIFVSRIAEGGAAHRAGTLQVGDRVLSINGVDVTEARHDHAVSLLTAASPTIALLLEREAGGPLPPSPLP
Inadl_4, Q8NI35, sequence (Q8NI35 547-651): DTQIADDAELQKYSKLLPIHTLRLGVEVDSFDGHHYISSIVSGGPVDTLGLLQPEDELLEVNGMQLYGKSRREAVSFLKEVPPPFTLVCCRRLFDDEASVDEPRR
TJP2_1, Q9UDY2, sequence (Q9UDY2 24-128): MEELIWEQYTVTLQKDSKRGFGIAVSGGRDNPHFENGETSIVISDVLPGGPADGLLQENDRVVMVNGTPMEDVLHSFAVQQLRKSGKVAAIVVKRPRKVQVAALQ
DLG4_3, P78352, sequence (P78352 306-403): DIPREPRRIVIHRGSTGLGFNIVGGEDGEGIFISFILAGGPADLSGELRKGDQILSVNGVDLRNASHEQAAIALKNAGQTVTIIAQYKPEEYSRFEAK
HTRA1, Q92743, sequence (Q92743 360-477): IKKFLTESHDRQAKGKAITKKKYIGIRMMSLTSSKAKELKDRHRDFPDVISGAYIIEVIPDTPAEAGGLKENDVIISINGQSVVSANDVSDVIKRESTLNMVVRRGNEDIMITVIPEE
Inadl_1, Q8NI35, sequence (Q8NI35 113-229): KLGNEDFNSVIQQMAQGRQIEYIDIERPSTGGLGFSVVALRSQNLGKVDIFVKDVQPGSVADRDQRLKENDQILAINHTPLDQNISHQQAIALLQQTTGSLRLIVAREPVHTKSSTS
Inadl_3, Q8NI35, sequence (Q8NI35 359-469): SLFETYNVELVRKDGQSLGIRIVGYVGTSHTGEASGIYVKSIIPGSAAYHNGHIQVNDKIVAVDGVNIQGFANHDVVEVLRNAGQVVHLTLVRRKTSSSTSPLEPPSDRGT
NOS1, P29475, sequence (P29475 9-101): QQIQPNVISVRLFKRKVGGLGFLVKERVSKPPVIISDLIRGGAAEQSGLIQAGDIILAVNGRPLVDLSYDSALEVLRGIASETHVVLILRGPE

pKd [1]: below the threshold | pKd [2]: below the threshold | pKd [3]: below the threshold | pKd [4]: 3.61 | pKd [5]: below the threshold | pKd [6]: below the threshold | pKd [7]: 4.14 | pKd [8]: below the threshold | pKd [9]: below the threshold | pKd [10]: below the threshold | pKd [11]: below the threshold | pKd [12]: below the threshold | pKd [13]: below the threshold | pKd [14]: below the threshold | pKd [15]: below the threshold | pKd [16]: below the threshold | pKd [17]: below the threshold | pKd [18]: below the threshold | pKd [19]: below the threshold | pKd [20]: 3.55 | pKd [21]: 4.55 | pKd [22]: 4.45 | pKd [23]: 5.17 | pKd [24]: below the threshold | pKd [25]: below the threshold | pKd [26]: below the threshold
B1: MAP4, P27816 (peptide)
chain: LDSQIQETSI

pKd [1]: below the threshold | pKd [2]: 3.49 | pKd [3]: below the threshold | pKd [4]: 3.62 | pKd [5]: below the threshold | pKd [6]: 3.51 | pKd [7]: 3.77 | pKd [8]: below the threshold | pKd [9]: below the threshold | pKd [10]: below the threshold | pKd [11]: below the threshold | pKd [12]: below the threshold | pKd [13]: below the threshold | pKd [14]: below the threshold | pKd [15]: below the threshold | pKd [16]: below the threshold | pKd [17]: below the threshold | pKd [18]: below the threshold | pKd [19]: below the threshold | pKd [20]: below the threshold | pKd [21]: 3.53 | pKd [22]: 3.51 | pKd [23]: below the threshold | pKd [24]: below the threshold | pKd [25]: below the threshold | pKd [26]: below the threshold
B2: CIT, O14578 (peptide)
chain: VNKVWDQSSV
